According to the supplement of paper PMC11246515:
± gives the standard deviation of the averaged measurements.

Experiment: total protein half-life in vivo (active degradation + dilution); higher = more stable protein
[1] = E. coli NCM3722 delta-clpP delta-lon delta-hslV, growth: N-lim chemostat, doubling time 6 h
[2] = E. coli NCM3722 delta-clpP, growth: N-lim chemostat, doubling time 6 h
[3] = E. coli NCM3722 delta-hslV, growth: N-lim chemostat, doubling time 6 h
[4] = E. coli NCM3722 delta-smpB, growth: N-lim chemostat, doubling time 6 h
[5] = wild type E. coli NCM3722, growth: C-lim chemostat, doubling time 3 h
[6] = wild type E. coli NCM3722, growth: C-lim chemostat, doubling time 6 h
[7] = wild type E. coli NCM3722, growth: C-lim chemostat, doubling time 12 h
[8] = wild type E. coli NCM3722, growth: N-lim chemostat, doubling time 6 h
[9] = wild type E. coli NCM3722, growth: N-lim chemostat, doubling time 12 h
[10] = wild type E. coli NCM3722, growth: P-lim chemostat, doubling time 6 h
[11] = wild type E. coli NCM3722, growth: P-lim chemostat, doubling time 12 h
[12] = E. coli NCM3722 delta-lon, growth: N-lim chemostat, doubling time 6 h

Sequence | total protein half-life in vivo [1] [h] | total protein half-life in vivo [2] [h] | total protein half-life in vivo [3] [h] | total protein half-life in vivo [4] [h] | total protein half-life in vivo [5] [h] | total protein half-life in vivo [6] [h] | total protein half-life in vivo [7] [h] | total protein half-life in vivo [8] [h] | total protein half-life in vivo [9] [h] | total protein half-life in vivo [10] [h] | total protein half-life in vivo [11] [h] | total protein half-life in vivo [12] [h]
MSLTELTGNPRHDQLLMLIAERGYMNIDELANLLDVSTQTVRRDIRKLSEQGLITRHHGGAGRASSVVNTAFEQREVSQTEEKKAIAEAVADYIPDGSTIFITIGTTVEHVARALLNHNHLRIITNSLRVAHILYHNPRFEVMVPGGTLRSHNSGIIGPSAASFVADFRADYLVTSVGAIESDGALMEFDVNEANVVKTMMAHARNILLVADHTKYHASAAVEIGNVAQVTALFTDELPPAALKSRLQDSQIEIILPQEDA | 5.99 ± 0.15 | 4.97 ± 0.17 | 5.17 ± 0.35 | 4.98 ± 0.86 | 2.8 ± 0.12 | 5.113 ± 0.0071 | 10.7 ± 0.88 | 4.89 ± 1 | 8.59 | 4.9 ± 0.25 | 8.679 ± 0.03 | 
MHEIFNMLLAVFDRAALMLICLFFLIRIRLFRELLHKSAHSPKELLAVTAIFSLFALFSTWSGVPVEGSLVNVRIIAVMSGGILFGPWVGIITGVIAGIHRYLIDIGGVTAIPCFITSILAGCISGWINLKIPKAQRWRVGILGGMLCETLTMILVIVWAPTTALGIDIVSKIGIPMILGSVCIGFIVLLVQSVEGEKEASAARQAKLALDIANKTLPLFRHVNSESLRKVCEIIRDDIHADAVAITNTDHVLAYVGVGEHNYQNGDDFISPTTRQAMNYGKIIIKNNDEAHRTPEIHSMLVIPLWEKGVVTGTLKIYYCHAHQITSSLQEMAVGLSQIISTQLEVSRAEQLREMANKAELRALQSKINPHFLFNALNAISSSIRLNPDTARQLIFNLSRYLRYNIELKDDEQIDIKKELYQIKDYIAIEQARFGDKLTVIYDIDEEVNCCIPSLLIQPLVENAIVHGIQPCKGKGVVTISVAECGNRVRIAVRDTGHGIDPKVIERVEANEMPGNKIGLLNVHHRVKLLYGEGLHIRRLEPGTEIAFYIPNQRTPVASQATLLL [P0AA93] | 6.72 | 6.87 ± 0.77 | 6.53 ± 0.56 | 5.52 ± 0.31 | 2.84 ± 0.064 |  |  | 5.53 ± 0.67 |  |  | 14.8 ± 0.34 | 
MKPTTISLLQKYKQEKKRFATITAYDYSFAKLFADEGLNVMLVGDSLGMTVQGHDSTLPVTVADIAYHTAAVRRGAPNCLLLADLPFMAYATPEQAFENAATVMRAGANMVKIEGGEWLVETVQMLTERAVPVCGHLGLTPQSVNIFGGYKVQGRGDEAGDQLLSDALALEAAGAQLLVLECVPVELAKRITEALAIPVIGIGAGNVTDGQILVMHDAFGITGGHIPKFAKNFLAETGDIRAAVRQYMAEVESGVYPGEEHSFH | 6.05 ± 0.05 | 5.86 ± 0.2 | 6.34 ± 0.95 | 6.04 ± 0.64 | 2.96 ± 0.031 | 6.93 ± 0.31 | 12.5 ± 2.7 | 5.51 ± 0.51 | 12.3 ± 2.8 | 6.42 ± 1.1 |  | 6.74 ± 0.46
MIHAFIKKGCFQDSVSLMIISRKLSESENVDDVSVMMGTPANKALLDTTGFWHDDFNNATPNDICVAIRSEAADAGIAQAIMQQLEEALKQLAQGSGSSQALTQVRRWDSACQKLPDANLALISVAGEYAAELANQALDRNLNVMMFSDNVTLEDEIQLKTRAREKGLLVMGPDCGTSMIAGTPLAFANVMPEGNIGVIGASGTGIQELCSQIALAGEGITHAIGLGGRDLSREVGGISALTALEMLSADEKSEVLAFVSKPPAEAVRLKIVNAMKATGKPTVALFLGYTPAVARDENVWFASSLDEAARLACLLSRVTARRNAIAPVSSGFICGLYTGGTLAAEAAGLLAGHLGVEADDTHQHGMMLDADSHQIIDLGDDFYTVGRPHPMIDPTLRNQLIADLGAKPQVRVLLLDVVIGFGATADPAASLVSAWQKACAARLDNQPLYAIATVTGTERDPQCRSQQIATLEDAGIAVVSSLPEATLLAAALIHPLSPAAQQHTPSLLENVAVINIGLRSFALELQSASKPVVHYQWSPVAGGNKKLARLLERLQ |  |  |  |  | 2.65 | 4.54 |  |  |  |  |  | 
MNIFEQTPPNRRRYGLAAFIGLIAGVVSAFVKWGAEVPLPPRSPVDMFNAACGPESLIRAAGQIDCSRNFLNPPYIFLRDWLGLTDPNAAVYTFAGHVFNWVGVTHIIFSIVFAVGYCVVAEVFPKIKLWQGLLAGALAQLFVHMISFPLMGLTPPLFDLPWYENVSEIFGHLVWFWSIEIIRRDLRNRITHEPDPEIPLGSNR [P0AAA1] | 6.706 ± 0.025 |  |  | 6.16 ± 0.29 | 3.21 ± 0.28 | 6.707 ± 0.0077 | 14.5 ± 0.3 | 5.96 ± 0.12 |  | 6.57 ± 1.5 | 13.7 ± 1.1 | 6.72 ± 0.32
